Starred links: 1 amine or outer side, 2 acyl side, 3 side chain; linkers in the order of their positions; H or OH if unused. Non-standard residues stand in square brackets, D forms with d. *: point of attachment. Pipz(1-CH2CO,4-CH2CH2NH) = O=C(CN1CCN(CCN[*:1])CC1)[*:2]; C18 diacid = O=C(O)CCCCCCCCCCCCCCCCC(=O)*; γGlu = O=C(O)[C@H](CCC(=O)[*:2])N[*:1]; 2Pal = N[C@@H](Cc1ccccn1)C(=O)O; NMeL = CN[C@@H](CC(C)C)C(=O)O; NMeA = CN[C@@H](C)C(=O)O; Nle = CCCC[C@H](N)C(=O)O; Sar = CNCC(=O)O
T1: human neuromedin U receptor 1 (human, UniProt Q9HB89 24-426)
T1 sequence (looked up): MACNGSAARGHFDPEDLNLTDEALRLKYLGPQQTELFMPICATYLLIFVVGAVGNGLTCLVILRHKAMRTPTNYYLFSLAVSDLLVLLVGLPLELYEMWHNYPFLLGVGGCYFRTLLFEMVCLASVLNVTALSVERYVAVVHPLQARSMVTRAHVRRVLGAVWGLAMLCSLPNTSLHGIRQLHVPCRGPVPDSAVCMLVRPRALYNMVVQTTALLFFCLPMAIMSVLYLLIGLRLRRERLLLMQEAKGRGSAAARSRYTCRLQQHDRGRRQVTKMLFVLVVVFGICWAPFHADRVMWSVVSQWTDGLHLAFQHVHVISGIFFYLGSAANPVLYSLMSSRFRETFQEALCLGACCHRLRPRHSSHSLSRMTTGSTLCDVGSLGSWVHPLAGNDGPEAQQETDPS

B1: C20DA-gGlu3-Sar15-AEPipAc-Tyr-Phe-NMeLeu-Nle-Lys-Pro-Arg-Gly-NH2 (peptide)
peptide: EEEXXXXXXXXXXXXXXXXYFLXKPRG
HELM: PEPTIDE1{[O=C(O)CCCCCCCCCCCCCCCCCCC(=O)[*:2]].[gGlu].[gGlu].[gGlu].[Sar].[Sar].[Sar].[Sar].[Sar].[Sar].[Sar].[Sar].[Sar].[Sar].[Sar].[Sar].[Sar].[Sar].[Sar].[O=C(CN1CCN(CCN[*:1])CC1)[*:2]].Y.F.[meL].[Nle].K.P.R.G.[am]}$$$$V2.0
SMILES: CCCC[C@H](NC(=O)[C@H](CC(C)C)N(C)C(=O)[C@H](Cc1ccccc1)NC(=O)[C@H](Cc1ccc(O)cc1)NC(=O)CN1CCN(CCNC(=O)CN(C)C(=O)CN(C)C(=O)CN(C)C(=O)CN(C)C(=O)CN(C)C(=O)CN(C)C(=O)CN(C)C(=O)CN(C)C(=O)CN(C)C(=O)CN(C)C(=O)CN(C)C(=O)CN(C)C(=O)CN(C)C(=O)CN(C)C(=O)CN(C)C(=O)CC[C@H](NC(=O)CC[C@H](NC(=O)CC[C@H](NC(=O)CCCCCCCCCCCCCCCCCCC(=O)O)C(=O)O)C(=O)O)C(=O)O)CC1)C(=O)N[C@@H](CCCCN)C(=O)N1CCC[C@H]1C(=O)N[C@@H](CCCNC(=N)N)C(=O)NCC(N)=O
B2: C18DA-gGlu3-Sar15-AEPipAc-Tyr-Phe-NMeLeu-Nle-His-Pro-Arg-Gly-NH2 (peptide)
peptide: EEEXXXXXXXXXXXXXXXXYFLXHPRG
HELM: PEPTIDE1{[O=C(O)CCCCCCCCCCCCCCCCC(=O)[*:2]].[gGlu].[gGlu].[gGlu].[Sar].[Sar].[Sar].[Sar].[Sar].[Sar].[Sar].[Sar].[Sar].[Sar].[Sar].[Sar].[Sar].[Sar].[Sar].[O=C(CN1CCN(CCN[*:1])CC1)[*:2]].Y.F.[meL].[Nle].H.P.R.G.[am]}$$$$V2.0
SMILES: CCCC[C@H](NC(=O)[C@H](CC(C)C)N(C)C(=O)[C@H](Cc1ccccc1)NC(=O)[C@H](Cc1ccc(O)cc1)NC(=O)CN1CCN(CCNC(=O)CN(C)C(=O)CN(C)C(=O)CN(C)C(=O)CN(C)C(=O)CN(C)C(=O)CN(C)C(=O)CN(C)C(=O)CN(C)C(=O)CN(C)C(=O)CN(C)C(=O)CN(C)C(=O)CN(C)C(=O)CN(C)C(=O)CN(C)C(=O)CN(C)C(=O)CC[C@H](NC(=O)CC[C@H](NC(=O)CC[C@H](NC(=O)CCCCCCCCCCCCCCCCC(=O)O)C(=O)O)C(=O)O)C(=O)O)CC1)C(=O)N[C@@H](Cc1c[nH]cn1)C(=O)N1CCC[C@H]1C(=O)N[C@@H](CCCNC(=N)N)C(=O)NCC(N)=O
B3: C18DA-gGlu3-Sar15-AEPipAc-Tyr-Phe-NMeLeu-Nle-2Pal-NMeAla-Arg-Gly-NH2 (peptide)
peptide: {C18 diacid}-[γGlu][γGlu][γGlu][Sar][Sar][Sar][Sar][Sar][Sar][Sar][Sar][Sar][Sar][Sar][Sar][Sar][Sar][Sar][Pipz(1-CH2CO,4-CH2CH2NH)]YF[NMeL][Nle][2Pal][NMeA]RG-NH2
SMILES: CCCC[C@H](NC(=O)[C@H](CC(C)C)N(C)C(=O)[C@H](Cc1ccccc1)NC(=O)[C@H](Cc1ccc(O)cc1)NC(=O)CN1CCN(CCNC(=O)CN(C)C(=O)CN(C)C(=O)CN(C)C(=O)CN(C)C(=O)CN(C)C(=O)CN(C)C(=O)CN(C)C(=O)CN(C)C(=O)CN(C)C(=O)CN(C)C(=O)CN(C)C(=O)CN(C)C(=O)CN(C)C(=O)CN(C)C(=O)CN(C)C(=O)CC[C@H](NC(=O)CC[C@H](NC(=O)CC[C@H](NC(=O)CCCCCCCCCCCCCCCCC(=O)O)C(=O)O)C(=O)O)C(=O)O)CC1)C(=O)N[C@@H](Cc1ccccn1)C(=O)N(C)[C@@H](C)C(=O)N[C@@H](CCCNC(=N)N)C(=O)NCC(N)=O
B4: C18DA-gGlu3-Sar15-AEPipAc-Tyr-Phe-NMeLeu-Nle-Lys-NMeAla-Arg-Gly-NH2 (peptide)
peptide: EEEXXXXXXXXXXXXXXXXYFLXKARG
HELM: PEPTIDE1{[O=C(O)CCCCCCCCCCCCCCCCC(=O)[*:2]].[gGlu].[gGlu].[gGlu].[Sar].[Sar].[Sar].[Sar].[Sar].[Sar].[Sar].[Sar].[Sar].[Sar].[Sar].[Sar].[Sar].[Sar].[Sar].[O=C(CN1CCN(CCN[*:1])CC1)[*:2]].Y.F.[meL].[Nle].K.[meA].R.G.[am]}$$$$V2.0
SMILES: CCCC[C@H](NC(=O)[C@H](CC(C)C)N(C)C(=O)[C@H](Cc1ccccc1)NC(=O)[C@H](Cc1ccc(O)cc1)NC(=O)CN1CCN(CCNC(=O)CN(C)C(=O)CN(C)C(=O)CN(C)C(=O)CN(C)C(=O)CN(C)C(=O)CN(C)C(=O)CN(C)C(=O)CN(C)C(=O)CN(C)C(=O)CN(C)C(=O)CN(C)C(=O)CN(C)C(=O)CN(C)C(=O)CN(C)C(=O)CN(C)C(=O)CC[C@H](NC(=O)CC[C@H](NC(=O)CC[C@H](NC(=O)CCCCCCCCCCCCCCCCC(=O)O)C(=O)O)C(=O)O)C(=O)O)CC1)C(=O)N[C@@H](CCCCN)C(=O)N(C)[C@@H](C)C(=O)N[C@@H](CCCNC(=N)N)C(=O)NCC(N)=O
B5: C18DA-gGlu3-Sar15-AEPipAc-Tyr-Phe-NMeLeu-Nle-Lys-Pro-Arg-Gly-NH2 (peptide)
peptide: EEEXXXXXXXXXXXXXXXXYFLXKPRG
HELM: PEPTIDE1{[O=C(O)CCCCCCCCCCCCCCCCC(=O)[*:2]].[gGlu].[gGlu].[gGlu].[Sar].[Sar].[Sar].[Sar].[Sar].[Sar].[Sar].[Sar].[Sar].[Sar].[Sar].[Sar].[Sar].[Sar].[Sar].[O=C(CN1CCN(CCN[*:1])CC1)[*:2]].Y.F.[meL].[Nle].K.P.R.G.[am]}$$$$V2.0
SMILES: CCCC[C@H](NC(=O)[C@H](CC(C)C)N(C)C(=O)[C@H](Cc1ccccc1)NC(=O)[C@H](Cc1ccc(O)cc1)NC(=O)CN1CCN(CCNC(=O)CN(C)C(=O)CN(C)C(=O)CN(C)C(=O)CN(C)C(=O)CN(C)C(=O)CN(C)C(=O)CN(C)C(=O)CN(C)C(=O)CN(C)C(=O)CN(C)C(=O)CN(C)C(=O)CN(C)C(=O)CN(C)C(=O)CN(C)C(=O)CN(C)C(=O)CC[C@H](NC(=O)CC[C@H](NC(=O)CC[C@H](NC(=O)CCCCCCCCCCCCCCCCC(=O)O)C(=O)O)C(=O)O)C(=O)O)CC1)C(=O)N[C@@H](CCCCN)C(=O)N1CCC[C@H]1C(=O)N[C@@H](CCCNC(=N)N)C(=O)NCC(N)=O
B6: C20DA-gGlu3-Sar15-AEPipAc-Tyr-Phe-NMeLeu-Nle-Lys-NMeAla-Arg-Gly-NH2 (peptide)
peptide: EEEXXXXXXXXXXXXXXXXYFLXKARG
HELM: PEPTIDE1{[O=C(O)CCCCCCCCCCCCCCCCCCC(=O)[*:2]].[gGlu].[gGlu].[gGlu].[Sar].[Sar].[Sar].[Sar].[Sar].[Sar].[Sar].[Sar].[Sar].[Sar].[Sar].[Sar].[Sar].[Sar].[Sar].[O=C(CN1CCN(CCN[*:1])CC1)[*:2]].Y.F.[meL].[Nle].K.[meA].R.G.[am]}$$$$V2.0
SMILES: CCCC[C@H](NC(=O)[C@H](CC(C)C)N(C)C(=O)[C@H](Cc1ccccc1)NC(=O)[C@H](Cc1ccc(O)cc1)NC(=O)CN1CCN(CCNC(=O)CN(C)C(=O)CN(C)C(=O)CN(C)C(=O)CN(C)C(=O)CN(C)C(=O)CN(C)C(=O)CN(C)C(=O)CN(C)C(=O)CN(C)C(=O)CN(C)C(=O)CN(C)C(=O)CN(C)C(=O)CN(C)C(=O)CN(C)C(=O)CN(C)C(=O)CC[C@H](NC(=O)CC[C@H](NC(=O)CC[C@H](NC(=O)CCCCCCCCCCCCCCCCCCC(=O)O)C(=O)O)C(=O)O)C(=O)O)CC1)C(=O)N[C@@H](CCCCN)C(=O)N(C)[C@@H](C)C(=O)N[C@@H](CCCNC(=N)N)C(=O)NCC(N)=O

biological target: T1, human neuromedin U receptor 1; test: cell-based or functional assay

Question: B1 was tested. Which “EC50 (hNMUR1) buffer” value did it give?
Answer: Its value is 1300 nM.

Question: With B2 as the binder, how does the “EC50 (hNMUR1) buffer” value read?
Answer: Its value is > 1000 nM.

Question: B3 was tested. Which “EC50 (hNMUR1) buffer” value did it give?
Answer: The value was > 1000 nM.

Question: B4 was tested. Which “EC50 (hNMUR1) buffer” value did it give?
Answer: Its value is > 1000 nM.

Question: How did the “EC50 (hNMUR1) buffer” value turn out when B5 was run?
Answer: The value was > 1000 nM.

Question: For B6, which “EC50 (hNMUR1) buffer” value is on record?
Answer: Its value is > 1000 nM.

— patent US20240279278A1, “NMU RECEPTOR 2 AGONISTS” (Boehringer Ingelheim International GmbH, priority 2023, published 2024)
